Results from article PMC6482197, “Inhibition of HtrA2 alleviated dextran sulfate sodium (DSS)-induced colitis by preventing necroptosis of intestinal epithelial cells” (Cell Death & Disease, 2019).

Target: the molecule itself
Assay: not stated; MLKL trimer formation in T/S-treated L929 cells, with or without UCF-101 (Supplementary Fig. 5)

B1: MLKL (natural protein, mouse (endogenous in L929), UniProt Q9D2Y4 1-472, looked up)
chain: MDKLGQIIKLGQLIYEQCEKMKYCRKQCQRLGNRVHGLLQPLQRLQAQGKKNLPDDITAALGRFDEVLKEANQQIEKFSKKSHIWKFVSVGNDKILFHEVNEKLRDVWEELLLLLQVYHWNTVSDVSQPASWQQEDRQDAEEDGNENMKVILMQLQISVEEINKTLKQCSLKPTQEIPQDLQIKEIPKEHLGPPWTKLKTSKMSTIYRGEYHRSPVTIKVFNNPQAESVGIVRFTFNDEIKTMKKFDSPNILRIFGICIDQTVKPPEFSIVMEYCELGTLRELLDREKDLTMSVRSLLVLRAARGLYRLHHSETLHRNISSSSFLVAGGYQVKLAGFELSKTQNSISRTAKSTKAERSSSTIYVSPERLKNPFCLYDIKAEIYSFGIVLWEIATGKIPFEGCDSKKIRELVAEDKKQEPVGQDCPELLREIINECRAHEPSQRPSVDGRSLSGRERILERLSAVEESTDKKV
notes: MLKL, endogenous in the mouse fibroblast line L929; The trimer is seen in the execution phase of necroptosis; also called mixed lineage kinase domain like pseudokinase; MLKL trimer; source: endogenous, L929 cells treated with TNF-α plus Smac mimetic (T/S)
With B1 the “stoichiometry N” value was 3.
